In PMC4737141:

Target: Recombinant human Tipin-His6 (human) (UniProt Q9BVW5)
Assay: SPR

UniProt Q9BVW5, sequence (Q9BVW5 whole entry): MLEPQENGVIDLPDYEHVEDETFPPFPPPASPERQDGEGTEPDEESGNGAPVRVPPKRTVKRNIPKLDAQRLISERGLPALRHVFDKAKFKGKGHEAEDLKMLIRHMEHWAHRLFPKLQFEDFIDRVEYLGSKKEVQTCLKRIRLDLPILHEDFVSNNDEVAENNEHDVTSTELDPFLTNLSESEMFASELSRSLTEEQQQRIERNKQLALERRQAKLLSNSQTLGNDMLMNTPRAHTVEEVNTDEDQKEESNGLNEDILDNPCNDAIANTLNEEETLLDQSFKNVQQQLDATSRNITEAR

Substance: Recombinant human DDX11-3xFLAG (from UniProt Q96FC9 1-970) (enzyme)
- Kd: 655 nM
